Assay results published in patent US20250368729A1.
Where a chain is given by its changes, count along the chain named. Each block holds one binder with its values, some of them ahead of it.

Assays:
[1] = target: synthetic amyloid-like fibrils of recombinant amyloidogenic λ6 variable domain protein (rVλ6Wil); test: EuLISA, fibrils coated on plate (FIG. 13A)
[2] = target: synthetic amyloid-like fibrils of recombinant amyloidogenic λ6 variable domain protein (rVλ6Wil); test: EuLISA, fibrils coated on plate (FIG. 13B)

EC50 [1]: 95 nM
EC50 [2]: 95 nM
B1: humanized antibody VH6/VL3 (antibody, V domains shown)
VH: QVQLQESGPGLVKPSETLSLTCTVSGFSLSSYGVSWVRQPPGKGLEWLGVIWGDGSTNYHPNLMSRLSISKDTSKNQFSLKLSSVTAADTATYYCVTLDYWGQGTSVTVSS
VL: DVVMTQSPLSLPVTLGQPASISCRSSQSLVHRNGNTYLHWYLQRPGQSPRLLIYKVSNRFSGVPDRFSGSGSGTDFTLKISRVEAEDVGLYFCFQTTYVPNTFGGGTKLEIK

EC50 [1]: 16 nM
B2: humanized antibody VH8/VL4 (antibody, V domains shown)
VH: B1 VH with V37I, L48I, L67V, S68T, N76S, T92V
VL: B1 VL with Y41F, L42Q, L90V

EC50 [1]: 17 nM
B3: humanized antibody VH10/VL4 (antibody, V domains shown)
VH: B1 VH with V37I, N76S, F78V, S79L, T92V
VL: B1 VL with Y41F, L42Q, L90V

EC50 [1]: 75 nM
B4: humanized antibody VH7/VL4 (antibody, V domains shown)
VH: B1 VH with V37I, L48I, L67V, S68T, F78V, S79L, T92V
VL: B1 VL with Y41F, L42Q, L90V
